# Laboratory results from the Human Domainome abundance scans (Beltran et al. 2025).
# ± gives the uncertainty stated by the source.
# Experiment: abundance fitness (aPCA) (normalised: wild type 0, dead -1); higher = more abundant; growth selection in yeast, the domain comes from the species named
# Settings: Homo sapiens
row,Substance,abundance fitness
1,"SAFB-like transcription modulator D62F, Q9NWH9",-0.526 ± 0.073
2,"SAFB-like transcription modulator D62G, Q9NWH9",-0.534 ± 0.054
3,"SAFB-like transcription modulator D62H, Q9NWH9",-0.253 ± 0.077
4,"SAFB-like transcription modulator D62I, Q9NWH9",-0.339 ± 0.049
5,"SAFB-like transcription modulator D62K, Q9NWH9",-0.531 ± 0.062
6,"SAFB-like transcription modulator D62L, Q9NWH9",-0.46 ± 0.047
7,"SAFB-like transcription modulator D62M, Q9NWH9",-0.69 ± 0.081
8,"SAFB-like transcription modulator D62N, Q9NWH9",-0.089 ± 0.05
9,"SAFB-like transcription modulator D62P, Q9NWH9",-0.474 ± 0.076
10,"SAFB-like transcription modulator D62Q, Q9NWH9",-0.334 ± 0.079
11,"SAFB-like transcription modulator D62R, Q9NWH9",-0.331 ± 0.052
12,"SAFB-like transcription modulator D62S, Q9NWH9",-0.191 ± 0.046
13,"SAFB-like transcription modulator D62T, Q9NWH9",-0.212 ± 0.066
14,"SAFB-like transcription modulator D62V, Q9NWH9",-0.397 ± 0.039
15,"SAFB-like transcription modulator D62W, Q9NWH9",-0.66 ± 0.045
16,"SAFB-like transcription modulator D62Y, Q9NWH9",-0.46 ± 0.064
17,"SAFB-like transcription modulator D64A, Q9NWH9",-0.12 ± 0.04
18,"SAFB-like transcription modulator D64C, Q9NWH9",-0.166 ± 0.05
19,"SAFB-like transcription modulator D64E, Q9NWH9",-0.038 ± 0.034
20,"SAFB-like transcription modulator D64F, Q9NWH9",-0.144 ± 0.048
21,"SAFB-like transcription modulator D64G, Q9NWH9",-0.09 ± 0.041
22,"SAFB-like transcription modulator D64H, Q9NWH9",-0.124 ± 0.058
23,"SAFB-like transcription modulator D64I, Q9NWH9",-0.28 ± 0.072
24,"SAFB-like transcription modulator D64K, Q9NWH9",-0.171 ± 0.058
25,"SAFB-like transcription modulator D64M, Q9NWH9",-0.016 ± 0.04
26,"SAFB-like transcription modulator D64N, Q9NWH9",0.035 ± 0.037

row,Substance,abundance fitness
1,"SAFB-like transcription modulator D64P, Q9NWH9",-0.519 ± 0.039
2,"SAFB-like transcription modulator D64R, Q9NWH9",-0.23 ± 0.032
3,"SAFB-like transcription modulator D64S, Q9NWH9",-0.113 ± 0.035
4,"SAFB-like transcription modulator D64T, Q9NWH9",-0.076 ± 0.04
5,"SAFB-like transcription modulator D64V, Q9NWH9",-0.317 ± 0.045
6,"SAFB-like transcription modulator D64W, Q9NWH9",-0.068 ± 0.046
7,"SAFB-like transcription modulator E33A, Q9NWH9",-0.455 ± 0.068
8,"SAFB-like transcription modulator E33C, Q9NWH9",-0.68 ± 0.1
9,"SAFB-like transcription modulator E33D, Q9NWH9",-0.916 ± 0.16
10,"SAFB-like transcription modulator E33F, Q9NWH9",-0.645 ± 0.049
11,"SAFB-like transcription modulator E33G, Q9NWH9",-0.974 ± 0.086
12,"SAFB-like transcription modulator E33H, Q9NWH9",-0.512 ± 0.13
13,"SAFB-like transcription modulator E33K, Q9NWH9",-0.89 ± 0.18
14,"SAFB-like transcription modulator E33L, Q9NWH9",-0.123 ± 0.061
15,"SAFB-like transcription modulator E33M, Q9NWH9",-0.007 ± 0.083
16,"SAFB-like transcription modulator E33N, Q9NWH9",-0.755 ± 0.1
17,"SAFB-like transcription modulator E33P, Q9NWH9",-1.16 ± 0.2
18,"SAFB-like transcription modulator E33Q, Q9NWH9",-0.111 ± 0.079
19,"SAFB-like transcription modulator E33R, Q9NWH9",-0.961 ± 0.077
20,"SAFB-like transcription modulator E33S, Q9NWH9",-0.353 ± 0.078
21,"SAFB-like transcription modulator E33T, Q9NWH9",-1.08 ± 0.17
22,"SAFB-like transcription modulator E33V, Q9NWH9",-0.917 ± 0.094
23,"SAFB-like transcription modulator E33W, Q9NWH9",-0.871 ± 0.1
24,"SAFB-like transcription modulator E57A, Q9NWH9",-0.085 ± 0.082
25,"SAFB-like transcription modulator E57C, Q9NWH9",-0.192 ± 0.096
26,"SAFB-like transcription modulator E57D, Q9NWH9",-0.164 ± 0.086
